Assays:
full-length murine PD-L1 = target: T1, full-length murine PD-L1 (murine, UniProt Q9EP73 19-290); experiment: IFNg-ELISPOT; TCR-transduced T cells on 293T B2M/CIITA knockout cells transfected with full-length murine PD-L1
T1 construct: whole, on cells; also called mPD-L1; murine homologue of PD-L1

[1] = target: T2, human PD-L1 (Programmed death-ligand 1) (human, UniProt Q9NZQ7 19-290); experiment: IFNg-ELISPOT on 293T B2M/CIITA knockout cells transfected with full-length or single-domain PD-L1 constructs; binding inferred from recognition
T2 construct: No signal peptide limits are stated; also called CD274; B7-H1
T2 sequence (Q9NZQ7 19-290 limits assumed): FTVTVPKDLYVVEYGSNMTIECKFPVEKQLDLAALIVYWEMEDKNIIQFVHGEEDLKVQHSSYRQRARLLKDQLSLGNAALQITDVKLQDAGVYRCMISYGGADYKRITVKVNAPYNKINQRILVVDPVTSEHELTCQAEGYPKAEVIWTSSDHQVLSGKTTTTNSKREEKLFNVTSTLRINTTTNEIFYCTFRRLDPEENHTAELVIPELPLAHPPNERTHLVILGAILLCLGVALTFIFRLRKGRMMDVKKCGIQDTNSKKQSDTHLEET

[2] = target: T2, human PD-L1 (Programmed death-ligand 1); experiment: IFNg-ELISPOT with TCR-transduced T cells and blocking anti-PD-L1 antibodies; binding inferred from recognition

T1 sequence (Q9EP73 19-290): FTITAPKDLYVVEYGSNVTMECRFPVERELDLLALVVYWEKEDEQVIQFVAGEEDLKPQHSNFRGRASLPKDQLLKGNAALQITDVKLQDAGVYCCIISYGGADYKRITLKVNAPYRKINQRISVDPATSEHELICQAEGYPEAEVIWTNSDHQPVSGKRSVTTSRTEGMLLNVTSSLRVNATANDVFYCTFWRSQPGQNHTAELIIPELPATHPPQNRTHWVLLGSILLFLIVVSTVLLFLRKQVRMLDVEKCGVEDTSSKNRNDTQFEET

Row | binding result (full-length murine PD-L1) | Binder | binding result [1] | binding result [2]
1 | no binding | chimerized TCR construct 11C/25 (TCR, V domains shown, In the assays the TCR stood as an alpha/beta heterodimer on transduced human T cells whose endogenous TCR was knocked out; also called cTCR 11C/25; TCR 11C/25) V domain 1: EAQVTQNPRYLITVTGKKLTVTCSQNMNHEYMSWYRQDPGLGLRQIYYSMNVEVTDKGDVPEGYKVSRKEKRNFPLILESPSPNQTSLYFCASSLSPAPPSIWSYNEQFFGPGTRLTVLE V domain 2: AQSVTQLDSQVPVFEEAPVELRCNYSSSVSVYLFWYVQYPNQGLQLLLKYLSGSTLVKGINGFEAEFNKSQTSFHLRKPSVHISDTAEYFCAVSKLAGRRALTFGSGTRLQVQP | binds | –
2 | no binding | chimerized TCR construct 11C/34 (TCR, V domains shown, In the assays the TCR stood as an alpha/beta heterodimer on transduced human T cells whose endogenous TCR was knocked out; also called cTCR 11C/34; TCR 11C/34) V domain 1: EPEVTQTPSHQVTQMGQEVILRCVPISNHLYFYWYRQILGQKVEFLVSFYNNEISEKSEIFDDQFSVERPDGSNFTLKIRSTKLEDSAMYFCASSLRLGWIPGNEQFFGPGTRLTVLE V domain 2: AQSVTQPDIHITVSEGASLELRCNYSYGATPYLFWYVQSPGQGLQLLLKYFSGDTLVQGIKGFEAEFKRSQSSFNLRKPSVHWSDAAEYFCAVGFMDSSYKLIFGSGTRLLVRP | – | binds
